Assay results published in patent US20150183883A1 (Genentech, published 2015).

T1: endothelin B receptor (ETBR) on the surface of UACC-257X2.2 melanoma cells (human, UniProt P24530 27-442)
T1 construct: Endogenous ETBR on UACC-257X2.2 melanoma cells (parental and resistant lines); also called EDNRB; EDNBR
T1 sequence: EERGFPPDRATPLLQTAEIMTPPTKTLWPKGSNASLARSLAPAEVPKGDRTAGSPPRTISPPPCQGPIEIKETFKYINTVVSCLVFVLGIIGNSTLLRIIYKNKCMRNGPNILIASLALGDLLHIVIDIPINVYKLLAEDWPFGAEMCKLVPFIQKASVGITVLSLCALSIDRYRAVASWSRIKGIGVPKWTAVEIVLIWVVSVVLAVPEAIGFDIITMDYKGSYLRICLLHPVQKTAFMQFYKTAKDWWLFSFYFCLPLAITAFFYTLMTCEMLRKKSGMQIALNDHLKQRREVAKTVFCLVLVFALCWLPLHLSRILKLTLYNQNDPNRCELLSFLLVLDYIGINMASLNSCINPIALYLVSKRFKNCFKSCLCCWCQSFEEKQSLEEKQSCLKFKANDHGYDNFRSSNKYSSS

B1: ch5E9 (antibody, human IgG1, kappa, V domains shown)
VH: QVQLLQSGAELARPGASVKLSCKASGYTFTSYWMQWVKQRPGQGLEWIGTIYPGDGDTSYAQKFKGKATLTTDKYSSTAYMQLSSLASEDSAVYYCARWGYAYDIDNWGQGTLVTVSS
VL: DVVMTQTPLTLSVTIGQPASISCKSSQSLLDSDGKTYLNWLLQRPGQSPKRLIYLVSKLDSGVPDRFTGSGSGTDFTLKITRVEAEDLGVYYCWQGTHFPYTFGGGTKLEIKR
notes: Naked antibody used as FACS staining reagent and detected with an anti-human Alexa 488 conjugate; also called anti-ETBR antibody; chimeric 5E9
B2: hu5E9.v1 (antibody, human IgG1, kappa, V domains shown)
VH: EVQLVESGGGLVQPGGSLRLSCAASGYTFTSYWMQWVRQAPGKGLEWIGTIYPGDGDTSYAQKFKGRATLSTDKSKNTAYLQMNSLRAEDTAVYYCARWGYAYDIDNWGQGTLVTVSS
VL: DIQMTQSPSSLSASVGDRVTITCKSSQSLLDSDGKTYLNWLQQKPGKAPKRLIYLVSKLDSGVPSRFSGSGSGTDFTLTISSLQPEDFATYYCWQGTHFPYTFGQGTKVEIKR
notes: Naked antibody used as FACS staining reagent and detected with an anti-human Alexa 488 conjugate; also called anti-ETBR antibody; humanized 5E9 version 1

Target: T1, endothelin B receptor (ETBR) on the …
Test: flow cytometry (FACS) on parental and resistant UACC-257X2.2 cells
Experimental: Expression of ETBR on the surface of the in vivo- and in vitro-derived resistant UACC-257X2.2 cells and the parental UACC-257X2.2 cells was then determined by FACS.

Binder | binding result
B1 | binds
B2 | binds
